# Source: article PMC6969166, “The molecular basis of pyrazinamide activity on Mycobacterium tuberculosis PanD” (Nature Communications, 2020)
# Biological target: the molecule itself
# Test: crystal structure
protein,measurement,value
"Mycobacterium tuberculosis PanD (aspartate decarboxylase), wild type, processed active enzyme (enzyme, also called Mtb PanD; Rv3601c; copies: 4 + 4) chain 1: MLRTMLKSKIHRATVTCADLHYVG chain 2: SVTIDADLMDAADLLEGEQVTIVDIDNGARLVTYAITGERGSGVIGINGAAAHLVHPGDLVILIAYATMDDARARTYQPRIVFVDAYNKPIDMGHDPAFVPENAGELLDPRLGVG",stoichiometry N,4
